Data taken from US20230212319A1, “NOVEL ANTIGEN BINDING DOMAINS AND SYNTHETIC ANTIGEN RECEPTORS INCORPORATING THE SAME” (University of Southern California, priority 2020, published 2023).

B1: 22143 (protein)
chain: MALPVTALLLPLALLLHAARPQVQLVESGGGLVQPGGSLRLSCAASGFTFTNHAMSWVRQAPGKGLELVSSISGNGRTTYYADSVKGRFTISRDISKNTLDLQMNSLRAEDTAVYYCAKDGGETLVDSRGQGTLVTVSSLEGGGGSGGGGSIEGGGGSGGGGSKVQLLESGGGLVQPGGSLRLSCAASGFIFSSYAMSWVRQAPGKGQEWVSGVSGTGVNTYYADSVKGRFTISRDNSKNTLYLQMNSLRAEDTAVYYCASGKGWDSGSWYEDYRGQGTLVTVSSGTGGGGSGGGGSGGGGSEFDIQMTQSPSSLSASVGDRVTITCKASDHINNWLAWYQQKPGQAPKLLIYGATTLETGVPSRFSGSGSGTDYTLTISSLQPEDFATYYCQQSWNTPWTFGQGTKLEIKRLEDLKNVFPPEVAVFEPSKAEIAHTQKATLVCLATGFYPDHVELSWWVNGKEVHSGVCTDPQPLKEQPALNDSRYCLSSRLRVSATFWQNPRNHFRCQVQFYGLSENDEWTQDRAKPVTQIVSAEAWGRADCGITSASYHQGVLSATILYEILLGKATLYAVLVSALVLMAMVKRKDSRGRAKRSGSGATNFSLLKQAGDVEENPGPTSATMDWIWRILFLVGAATGAHSGPQVQLQESGGGLAQAGGSLRLSCAASGRTFSMGWFRQAPGKEREFVAAITYSGGSPYYASSVRGRFTISRDNAKNTVYLQMNSLKPEDTAVYYCAANPTYGSDWNAENWGQGTQVTVSSGSGGGGSGGGGSGGGGSFEQVQLQQPGAELVKPGASVKMSCKASGYAFSSYWINWMKQKPGQGLEWIGQIYPGDGDTNYNGKFKGRATLTADTSSSTAYMQLSSLTSEDSAVYFCARSITTVVGCAMDYWGQGTSVTVSSTRIQNPDPAVYQLRDSKSSDKSVCLFTDFDSQTNVSQSKDSDVYITDKCVLDMRSMDFKSNSAVAWSNKSDFACANAFNNSIIPEDTFFPSSDVPCDVKLVEKSFETDTNLNFQNLSVIGFRILLLKVAGFNLLMTLRLWSSRAKRSGSGVKQTLNFDLLKLAGDVESNPGPSRGHMTEYKPTVRLATRDDVPRAVRTLAAAFADYPATRHTVDPDRHIERVTELQELFLTRVGLDIGKVWVADDGAAVAVWTTPESVEAGAVFAEIGPRMAELSGSRLAAQQQMEGLLAPHRPKEPAWFLATVGVSPDHQGKGLGSAVVLPGVEAAERAGVPAFLETSAPRNLPFYERLGFTVTADVEVPEGPRTWCMTRKPGA
B2: 22012 (protein)
chain: MDWIWRILFLVGAATGAHSQLQLQESGPGLVKPSETLSLTCTVSGGSVSSSSYYWGWIRQPPGKRLELIGSIYYGGSTYFNPSLKTRVTISVDTSKNQFSLKLSSVTAADTAVYYCAGGDTYGPVGQWPSDYRGQGTLVTVSSLEDLKNVFPPEVAVFEPSEAEISHTQKATLVCLATGFYPDHVELSWWVNGKEVHSGVCTDPQPLKEQPALNDSRYCLSSRLRVSATFWQNPRNHFRCQVQFYGLSENDEWTQDRAKPVTQIVSAEAWGRADCGFTSESYQQGVLSATILYEILLGKATLYAVLVSALVLMAMVKRKDSRGRAKRSGSGATNFSLLKQAGDVEENPGPTSMDWIWRILFLVGAATGAHSFEVQLLESGGGLIQPGGSLRLSCAASGFTFSSHAMTWVRQAPGKGLEWVSAISGSGDYTHYADSVKGRFTISRDNSKNTVYLQMNSLRAEDSAVYYCAKDEDGGSLLGHRGQGTLVTVSSTRIQNPDPAVYQLRDSKSSDKSVCLFTDFDSQTNVSQSKDSDVYITDKCVLDMRSMDFKSNSAVAWSNKSDFACANAFNNSIIPEDTFFPSPESSCDVKLVEKSFETDTNLNFQNLSVIGFRILLLKVAGFNLLMTLRLWSSRAKRSGSGVKQTLNFDLLKLAGDVESNPGPSRGHMTEYKPTVRLATRDDVPRAVRTLAAAFADYPATRHTVDPDRHIERVTELQELFLTRVGLDIGKVWVADDGAAVAVWTTPESVEAGAVFAEIGPRMAELSGSRLAAQQQMEGLLAPHRPKEPAWFLATVGVSPDHQGKGLGSAVVLPGVEAAERAGVPAFLETSAPRNLPFYERLGFTVTADVEVPEGPRTWCMTRKPGA
B3: 22124 (protein)
chain: MALPVTALLLPLALLLHAARPEVQLVESGGGLVQAGGSLRLSCAASGRTFSMGWFRQAPGKEREFVAAITYSGGSPYYADSVKGRFTISRDNAKNTVYLQMNSLKPEDTAVYYCAANPTYGSDWNAENWGQGTQVTVSSGGGGSGGGGSQLQLQESGPGLVKPSETLSLTCTVSGGSISSGDYYWGWIRQPPGKGLEWIGSISYSGSTYYNPSLKSRVTISVDTSRNQFSLKLSSVTAADTAVYYCTREDSSNWRSRGQGTLVTVSSGTGGGGSGGGGSGGGGSEFDIQMTQSPSSLSASVGDRVTITCKASDHINNWLAWYQQKPGQAPKLLIYGATTLETGVPSRFSGSGSGTDYTLTISSLQPEDFATYYCQQSWNTPWTFGQGTKLEIKRLEIQNPDPAVYQLRDSKSSDKSVCLFTDFDSQTNVSQSKDSDVYITDKCVLDMRSMDFKSNSAVAWSNKSDFACANAFNNSIIPEDTFFPSSDVPCDVKLVEKSFETDTNLNFQNLSVIGFRILLLKVAGFNLLMTLRLWSSRAKRSGSGVKQTLNFDLLKLAGDVESNPGPTSATMDWIWRILFLVGAATGAHSGPQVQLQESGGGLAQAGGSLRLSCAASGRTFSMGWFRQAPGKEREFVAAITYSGGSPYYASSVRGRFTISRDNAKNTVYLQMNSLKPEDTAVYYCAANPTYGSDWNAENWGQGTQVTVSSGSGGGGSGGGGSGGGGSFEQVQLQQPGAELVKPGASVKMSCKASGYAFSSYWINWMKQKPGQGLEWIGQIYPGDGDTNYNGKFKGRATLTADTSSSTAYMQLSSLTSEDSAVYFCARSITTVVGCAMDYWGQGTSVTVSSTREDLKNVFPPEVAVFEPSKAEIAHTQKATLVCLATGFYPDHVELSWWVNGKEVHSGVCTDPQPLKEQPALNDSRYCLSSRLRVSATFWQNPRNHFRCQVQFYGLSENDEWTQDRAKPVTQIVSAEAWGRADCGITSASYHQGVLSATILYEILLGKATLYAVLVSALVLMAMVKRKDSRGRAKRSGSGATNFSLLKQAGDVEENPGPSRGHMTEYKPTVRLATRDDVPRAVRTLAAAFADYPATRHTVDPDRHIERVTELQELFLTRVGLDIGKVWVADDGAAVAVWTTPESVEAGAVFAEIGPRMAELSGSRLAAQQQMEGLLAPHRPKEPAWFLATVGVSPDHQGKGLGSAVVLPGVEAAERAGVPAFLETSAPRNLPFYERLGFTVTADVEVPEGPRTWCMTRKPGA

Key:
Assay type in all cases: cell-based
RS;411 = test: JNG assay, co-culture with RS;411 cells; conditions: co-culture with RS411
Protocol: Cellular supernatant is collected and assayed for the induction of cytokines (e.g., IL2).
JNG (Jurkat cells expressing EGFP under an NFAT promoter) were infected with lentiviral vectors encoding different single chain and multi-chain SARs by spinfection in the presence of 8 µg/ml of Polybrene® (Sigma, Catalog no. H9268). The Jurkat-NFAT-GFP cells are engineered in such a way that the IL-2 promoter, which carries NFAT binding sites, is cloned upstream of the GFP gene. These cells have been used to study signaling via TCR and CAR. The different SARs were stably expressed in Jurkat NFAT-GFP cells by lentiviral mediated gene transfer, followed by selection with puromycin or blasticidin. No drug selection was used in case the construct lacked an antibiotic resistance gene. The SAR-expressing Jurkat-NFAT-GFP cells were cocultured with the target cells at E:T ratio of approximately 1:2 for approximately 4 hours to 18 hours. When the interaction between SIRs and their target antigen results in activation of the NFAT pathway, GFP expression is induced. […] GFP expression was monitored by FACS analysis. The Jurkat-NFAT-GFP (parental) cells were used as control. The structure of different constructs can be determined based on their names. […] The sequence of the other constructs in the table can be similarly determined from their names and by referring to the different Tables of this disclosure that provide the names and SEQ ID NO of the different modules. Alternatively, the composition and modular architecture of the different SAR constructs can be determined from their sequences by bioinformatics tools, including using nucleic acid and amino acids homology searches. A SAR is considered positive in the assay in case the SAR expressing Jurkat-NFAT-GFP cells show greater % GFP positive cells when cultured with the target cell line as compared to parental Jurkat-NFAT-GFP cells. […] In general, the number +/-, +, 2+, 3+, 4+, 5+ refer to approximately 5%, 10%, 20%, 30%, 40% and 50% GFP positive cells. The % of GFP induction in the above assay is dependent not only the relative strength of the SAR but also, among other factors, on the relative level of expression of the SAR in the JNG cells and the relative level of expression of the target antigen in the target cell line. To control for the difference in gene transduction efficiency of the different SAR constructs, the experiment was conducted with JNG cells transduced with SAR constructs co-expressing a drug resistance gene (e.g., puromycin or PAC) followed by drug selection to generate a stable population of SAR-expressing cells. It is to be noted that the drug resistance gene (e.g., PAC) in the SAR constructs is optional and in vivo studies were conducted with SAR constructs lacking the PAC gene.

RAJI cells = test: JNG assay, co-culture with RAJI cells; conditions: JNG cells expressing construct, co-culture with Raji
Procedure, shortened: (§1)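 Jurkat-NFAT-GFP (JNG) cells stably expressing SAR constructs via lentiviral transduction and puromycin/blasticidin selection were cocultured with target cells at E:T ~1:2 for ~4–18 h. NFAT-driven GFP was measured by FACS versus parental JNG cells; scores +/- to 5+ denote ~5–50% GFP-positive cells.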

L363 cells = test: JNG assay, co-culture with L363 cells; conditions: co-culture with L363
Procedure, shortened: as §1

Nalm6 cells = test: JNG assay, co-culture with Nalm6 cells; conditions: co-culture with Nalm6
Procedure, shortened: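 Scoring uses % GFP+ reporter cells above the parental control, where +/-, +, 2+, 3+, 4+ and 5+ correspond to about 5, 10, 20, 30, 40 and 50%. Effectors were SAR-expressing Jurkat NFAT-GFP cells cocultured with targets (E:T ~1:2, ~4–18 h).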

| Molecule | NFAT-GFP ASSAY: RS411 (RS;411) | NFAT-GFP ASSAY: Raji (RAJI cells) | NFAT-GFP ASSAY: L363 (L363 cells) | NFAT-GFP ASSAY: Nalm6 (Nalm6 cells) |
| --- | --- | --- | --- | --- |
| B1 | 2+ (refer to approximately 5%, 10%, 20%, 30%, 40% and 50% GFP positive cells) | 2+ (refer to approximately 5%, 10%, 20%, 30%, 40% and 50% GFP positive cells) | 2+ (refer to approximately 5%, 10%, 20%, 30%, 40% and 50% GFP positive cells) |  |
| B2 | +/- (refer to approximately 5%, 10%, 20%, 30%, 40% and 50% GFP positive cells) |  | + (refer to approximately 5%, 10%, 20%, 30%, 40% and 50% GFP positive cells) |  |
| B3 | 2+ (refer to approximately 5%, 10%, 20%, 30%, 40% and 50% GFP positive cells) |  |  | 2+ (refer to approximately 5%, 10%, 20%, 30%, 40% and 50% GFP positive cells) |
